Experiment: yeast display, Sf9 membrane polyspecificity reagent, FACS + sequencing; frameworks hold sequencing errors
Procedure, shortened: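 Genes from sorted yeast were amplified by colony PCR, read by MiSeq 2 × 250 sequencing and filtered on CDR length. These cells carried a synthetic nanobody library in Saccharomyces cerevisiae BJ5465 and were sorted by FACS into low and high (top ~1%) gates on anti-HA and streptavidin fluorescence. Polyreactivity is labelled according to the gate of origin.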

**Q.** For “QVQLVESGGGLVQAGGSLRLSCAASGSILTVYAMGWYRQAPGKERELVARIRSGDRTYYADSVKGRFTISRDNAKNTVYLQMNSLKPEDTAVYYCAAGSQRRYYHTNWDSFNYWGQGSQVTVSS”, which “polyreactivity (PSR sort gate)” value is on record?
**A.** low polyreactivity

**Q.** With “QVQLVESGGGLVQAGGSLRLSCAASGSILVANGMGWYRKAPGKERELVAGITTRGGNTYYADSVKGRFTISRDNAKNTVYLQMNSLKPEDTAVYYCATDLIGVWYWYEYWGQGTQVTVSS” as the sequence, how does the “polyreactivity (PSR sort gate)” value read?
**A.** low polyreactivity

**Q.** With “QVQLVESGGGLVQAGGSLRLSCAASGSILVGNPMGWYRQAPGTERELVAAISKSGSSTHYADSVKGRFTISRDNAKNTFYLQMNSLKPEDTAVYYCNAVGRVYRAKYDYWGQGTQVTVSS” as the sequence, how does the “polyreactivity (PSR sort gate)” value read?
**A.** high polyreactivity

**Q.** With “QVQLVESGGGLVQAGGSLRLSCAASGSILVNMGWSRQAPAKERELVAAIRYGGGRTYYADSVKGRFTISRDNAKNTVYLQMNSLKPEDTEVYYCAKKYIWVWAPAKQYGFDSWGQGTQVTVSS” as the sequence, how does the “polyreactivity (PSR sort gate)” value read?
**A.** low polyreactivity

**Q.** With “QVQLVESGGGLVQAGGSLRLSCAASGSILVPNAMGWYRQAPRKERELVAGISANGGSTYYADSVKGRFTISRDNAKNTVYFQMNSLKPEDTAVYDCNARLYWDWYGDDYWGQGTQVTVSS” as the sequence, how does the “polyreactivity (PSR sort gate)” value read?
**A.** low polyreactivity

**Q.** Which “polyreactivity (PSR sort gate)” value does the source give for “QVQLVESGGGLVQAGGSLRLSCAASGSILVPYTMGWYRQAPGKERELVASISYSGGTTYYADSVKGRFTISRDNAKNTVYLQMNSLKPEDTAVYYCAADWDESYSYRRYRHYNYWGQGTQVTVSS” here?
**A.** low polyreactivity

**Q.** Which “polyreactivity (PSR sort gate)” value does the source give for “QVQLVESGGGLVQAGGSLRLSCAASGSILWENAMGWYRQAPGKERELVATISVSGGGTYYADSVKGRFTISRDNAKNTVYLQMNSLKPEDTAVYYCNARYGNESQGWEDYWGQGTQVTVSS” here?
**A.** low polyreactivity

**Q.** For “QVQLVESGGGLVQAGGSLRLSCAASGSILWHYAMGWYRQAPGKERELVAAISGSGRTNYADSVKGRFTISRDNAKNTVYLQMNSLKPEDTAVYYCARVHGTSESKYYYWGQGTQVTVSL”, which “polyreactivity (PSR sort gate)” value is on record?
**A.** low polyreactivity

**Q.** For “QVQLVESGGGLVQAGGSLRLSCAASGSILWLYVMGWYRQAPGKERELVATITSSGGSTYYADSVKGRFTISRDNAKNSVYLQMNSLKPEDTAVYYCAADYSRDEYDYWGQGTQVTVSS”, which “polyreactivity (PSR sort gate)” value is on record?
**A.** low polyreactivity

**Q.** Which “polyreactivity (PSR sort gate)” value does the source give for “QVQLVESGGGLVQAGGSLRLSCAASGSILWSYAMGWYRQAPGKERELVAAIRSGGSTYYADSVKGRFTISRDNAKNTVYLQMNSLKPEDTAVYYCNATYAPLFEYDYWGQGTQVTVSS” here?
**A.** low polyreactivity

**Q.** With “QVQLVESGGGLVQAGGSLRLSCAASGSILYPYAMGWYRQAPGKERELVAAISSDGSTYYADSVKGRFTISRDNAKNTVYLQMNSLKPEDTAVYYCNADIGPRYDYWGQGTQVTVSS” as the sequence, how does the “polyreactivity (PSR sort gate)” value read?
**A.** high polyreactivity

**Q.** Which “polyreactivity (PSR sort gate)” value does the source give for “QVQLVESGGGLVQAGGSLRLSCAASGSILYTYAMGWYRQAPGKERELVAAISRGGGSTYYADSVKGRFTISRDNAKNTVYLQMNSLKPEDTAVYYCAARKLTRGTGRDDEYWGQGTQVTVSS” here?
**A.** high polyreactivity

**Q.** For “QVQLVESGGGLVQAGGSLRLSCAASGSILYVYAMGWYRQAPGKERELVAAISFSGGSTYYADSVKGRFTISRDNAKNTVYLQMNSLKPEDTAVYYCAADVSYDIYVEYDYWGQGTQVTVSS”, which “polyreactivity (PSR sort gate)” value is on record?
**A.** low polyreactivity

**Q.** Which “polyreactivity (PSR sort gate)” value does the source give for “QVQLVESGGGLVQAGGSLRLSCAASGSILYWYAMGWYRQAPGKERELVAGIDWSGGSTYYADSVKGRFTISRDNAKNTVYLQMNSLKPEDTAVYYCNAVQNRGRGSHRGESTYYYWGQGTQVTVSS” here?
**A.** low polyreactivity

**Q.** For “QVQLVESGGGLVQAGGSLRLSCAASGSILYYNAMGWYRQAPGKEREFVAAISDSGSSTYYADSVKGRFTITRDNAKNTVYLQMNSLKPEDTAVYYCNTEIYVDIISDYGYWGQGTQVTVSS”, which “polyreactivity (PSR sort gate)” value is on record?
**A.** low polyreactivity

**Q.** With “QVQLVESGGGLVQAGGSLRLSCAASGSILYYYAMGWYRQAPGKERELVAAISSGGSTYYADSVKGRFTISRDNAKNTVYLQMNSLKPEDTAVYYCAARRDNPWAKAPRYKMYYWGQGTQVTVSS” as the sequence, how does the “polyreactivity (PSR sort gate)” value read?
**A.** high polyreactivity

**Q.** For “QVQLVESGGGLVQAGGSLRLSCAASGSIMSYYAMGWYRQAPGQVREFVAAISSGGGTYYADSVKGRFTISRDNAKNTVYLQMNSLNAEDTAVFYCNADHASSIQFEYWGQGTQVTVSS”, which “polyreactivity (PSR sort gate)” value is on record?
**A.** low polyreactivity

**Q.** Which “polyreactivity (PSR sort gate)” value does the source give for “QVQLVESGGGLVQAGGSLRLSCAASGSIQTLYAMGWYRQAPGKERELVAAITSGDRTNYADSVKGRFTISRDNAKNTVYLQMNSLKPEDTAVYYCATKRWWGRYDYWGQGTQVTVSS” here?
**A.** high polyreactivity

**Q.** With “QVQLVESGGGLVQAGGSLRLSCAASGSIRRYAMGWYRQAPGKERELVAAISGSGVSTYYADSVKGRFTISRDNAKNTVYLQMNSLKPEDTAVYYCAAAAIYFRYDYWGQGTQVTVSS” as the sequence, how does the “polyreactivity (PSR sort gate)” value read?
**A.** high polyreactivity

**Q.** For “QVQLVESGGGLVQAGGSLRLSCAASGSISAAYAMGWYRQAPGKERELVADISSSGVSTYYADSVKGRFTISRDNAKNTVYLQMNSLKQEDTAVYYCAKNRVAGYRKYDYWGQGTQVTVSS”, which “polyreactivity (PSR sort gate)” value is on record?
**A.** low polyreactivity

**Q.** For “QVQLVESGGGLVQAGGSLRLSCAASGSISAQNAMGRYRQAPGKERELVATINSGGRTNYADSVKGRFTISRDNAKNTVYLQMNSLNPEDTAVYYCNTVVRGAYTYGDVSKYDYWGQGNQVTVSS”, which “polyreactivity (PSR sort gate)” value is on record?
**A.** low polyreactivity

**Q.** With “QVQLVESGGGLVQAGGSLRLSCAASGSISDVYAMGWYRQAPGKERELVAAYADSVKGRFTISRDNAKNTVYLQMNCLKPVDTAVYYCNFVETSQELGWQAFDYWGQGTQVTVSS” as the sequence, how does the “polyreactivity (PSR sort gate)” value read?
**A.** low polyreactivity

**Q.** With “QVQLVESGGGLVQAGGSLRLSCAASGSISFSNAMGWYRQAPGKERELVASITSGGSTKYADSVKGRFTISRDNAKNTVYLQMNSLKPEDTAVYYCAADGYDYWGQGTQVTVSS” as the sequence, how does the “polyreactivity (PSR sort gate)” value read?
**A.** low polyreactivity

**Q.** With “QVQLVESGGGLVQAGGSLRLSCAASGSISGGYAMGWYRQAPGKERELVAVIDSGGSTYYADSVKGRFTISRDNAKNTVYLQMNSLKPEDTAVYYCNADYSSQDNFDYWGQGTQVTVSS” as the sequence, how does the “polyreactivity (PSR sort gate)” value read?
**A.** low polyreactivity

**Q.** With “QVQLVESGGGLVQAGGSLRLSCAASGSISGRNTMGWYRQAPGKERELVAAISWSGGSTYYADSVKGRFTISRDNAKNTVYLQMNSLKPEDTAVYYCAARNWRGVGGGVGRYGYWGQGTQVTVSS” as the sequence, how does the “polyreactivity (PSR sort gate)” value read?
**A.** high polyreactivity

**Q.** Which “polyreactivity (PSR sort gate)” value does the source give for “QVQLVESGGGLVQAGGSLRLSCAASGSISGVYAMGWYRQAPGKERELVAAISRSGGSTYYADSVKGRFTISRDNAKNTVYLQMNSLKPEDTAVYYCAAEYTYYSYGGNYDYWGQGTQVSVSS” here?
**A.** low polyreactivity

**Q.** For “QVQLVESGGGLVQAGGSLRLSCAASGSISGYYVKGWYRQAQGKERELVAAITWRGGSTYYADSVKGRFTISRDNAKNTVYLQMNSLKPEDTAVYYCNKVPGRRSTFEYWGQGTQVTVSS”, which “polyreactivity (PSR sort gate)” value is on record?
**A.** high polyreactivity

**Q.** With “QVQLVESGGGLVQAGGSLRLSCAASGSISIFYMGWYRQAPGKERELVAAISWSGGRTYYADSVKGRFTISRDNAKNTVYLQMNSLKREDTAVYYCAASRSFPGYGLYYYWGQGTQVTVSS” as the sequence, how does the “polyreactivity (PSR sort gate)” value read?
**A.** low polyreactivity

**Q.** For “QVQLVESGGGLVQAGGSLRLSCAASGSISKINAMGWYRQAPGKESELGAAINTGDSTYYADSVKGRFTISRDNAKNTVYLQMNSLKPEDTAVYYCAAEGSPTGYDDWGQGTQGTVSS”, which “polyreactivity (PSR sort gate)” value is on record?
**A.** low polyreactivity

**Q.** For “QVQLVESGGGLVQAGGSLRLSCAASGSISLHYAMGWYRQAPGKERELVAAISKSGGSTYYADSVKGRFTISRDNAKNTVYLQMNSLKPEDTAVYYCAADTYRSFGYNYWGQGTQVTVSS”, which “polyreactivity (PSR sort gate)” value is on record?
**A.** high polyreactivity

**Q.** With “QVQLVESGGGLVQAGGSLRLSCAASGSISNRNAMGWYRQAPGKERELVAAITYSGGSTYYADSVKGRFTISRDNAKNTVYLQMNSLKPEDTAVYYCAKDHYRFRYDYWGQGTQVTVSS” as the sequence, how does the “polyreactivity (PSR sort gate)” value read?
**A.** low polyreactivity

**Q.** With “QVQLVESGGGLVQAGGSLRLSCAASGSISNVYDMGWYRQAPGKERELVATISRTGDSTYYADSVKGRFTISRDNAKNTVYLQMNSLKPEDTAVYYCAARFYWWGLGDDYWGQGTQVTVSS” as the sequence, how does the “polyreactivity (PSR sort gate)” value read?
**A.** high polyreactivity

**Q.** With “QVQLVESGGGLVQAGGSLRLSCAASGSISPQNVMGWYRQAPGKERELVAAITGGGYTNYADSVKGRFTISRDNAKKTVYLQMNSLKPEDTAVYYCNADYFQDRLDYWGQGTQVTVSS” as the sequence, how does the “polyreactivity (PSR sort gate)” value read?
**A.** low polyreactivity

**Q.** For “QVQLVESGGGLVQAGGSLRLSCAASGSISRVYAMGWYRAAPGKERELVASISRSGGSTYYADSVKGRFTISRDNAKNTVYLQRNSLKPEDTAVYYCAKASKGQYRFDYWGQGTQVTVSS”, which “polyreactivity (PSR sort gate)” value is on record?
**A.** low polyreactivity

**Q.** With “QVQLVESGGGLVQAGGSLRLSCAASGSISSLNTMGWYRQAPGKERELVASISRRGGSTYYADSVKGRFTISRDNAKNTVYLQINSLKPEDTAVFYCAARGVGGTVPTRYDYWGQGTQVTVSS” as the sequence, how does the “polyreactivity (PSR sort gate)” value read?
**A.** high polyreactivity

**Q.** For “QVQLVESGGGLVQAGGSLRLSCAASGSISSQNAMVSYRQAPGKERELVAAISWIGGSTYYADSVKGRFTISRDFAKNTVYLQMNSLKPEDTAVYYCAKDRARGFKYYYWGQGTQVTVSS”, which “polyreactivity (PSR sort gate)” value is on record?
**A.** low polyreactivity

**Q.** With “QVQLVESGGGLVQAGGSLRLSCAASGSISSWYAMGWYRQAPGKERELVAAISSGVTTYYADSVKGRFTISRDNAKNTVYLQMHSLKPEDTAVDYCAAKTALYRERGYWGQGTQVTVSS” as the sequence, how does the “polyreactivity (PSR sort gate)” value read?
**A.** low polyreactivity

**Q.** For “QVQLVESGGGLVQAGGSLRLSCAASGSISSYAMGWYRQAPGKERELVASITWHGGGTYYADSVKGRFTISRDNAKNTVYLQMNSLKPEDTAVYYCNADYVYSWYEPLKYNYWGQGTQVTVSS”, which “polyreactivity (PSR sort gate)” value is on record?
**A.** low polyreactivity

**Q.** Which “polyreactivity (PSR sort gate)” value does the source give for “QVQLVESGGGLVQAGGSLRLSCAASGSISVNAMVWDRQAPGKERELVAVINRSGGNTYYADSVKGRFTISRDNAKNTVYLQMNSLKPEDTAVYYCAAKWTRSYSRYDYWGQVTQVTVSS” here?
**A.** high polyreactivity

**Q.** Which “polyreactivity (PSR sort gate)” value does the source give for “QVQLVESGGGLVQAGGSLRLSCAASGSISWWYAMGWYRQAPGKERELVAAISSRGGSTYYADSVKGRFTISRDNAKNTVYLQMNSLKPEDTAVYYCAKYYYVGTSFYQGDYWGQGTQVTVSS” here?
**A.** low polyreactivity

**Q.** With “QVQLVESGGGLVQAGGSLRLSCAASGSISYRYDMGWYRQAPGKERELVATIRSGGSTNYADSVKGRFTISRDNAKNTVYLQMNSMIPEDTAVYYCAARLYARKILHFSADSDYWGQGTQVTVSS” as the sequence, how does the “polyreactivity (PSR sort gate)” value read?
**A.** low polyreactivity

Reference: the nanobody polyreactivity screen of Harvey et al. (2022)
